Source: the RNAGym collection of RNA variant scans (doi:10.1073/pnas.2313332121)
Fewer inactive variants are shown than the library holds.

B1: TPR 5TU (parent)
chain: GGAUCUUCUCGAUCUAACAAAAAAGACAAAUCUGCCACAAAGCUUGAGAGCAUCUUCGGAUGCAGAGGCGGCAGCCUUCGGUGGCGCGAUAGCGCCAACGUUCUCAACUAUGACACGCAAAACGCGUGCUCCGUUGAAUGGAGUUUAUCAUG

Variants of: B1
Assay: polymerase ribozyme fitness, log enrichment relative to wild type (log ratio); higher = more active; in vitro selection for triplet polymerase activity
Outline: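 For each subunit of a heterodimeric triplet polymerase ribozyme, a mutant library was built by PCR and transcribed, then taken through a single in vitro selection round in triplicate. Selection involved annealing to a biotinylated primer, the partner subunit and triplets, incubation frozen at −7 °C, gel excision of extended constructs, capture on streptavidin beads and RT-PCR. Genotypes were retained after Illumina sequencing of inputs and outputs only with ≥10 input reads and ≥1 read in each output. Fitness is defined as the logarithm of a genotype's enrichment relative to wild-type enrichment, using inverse-variance-weighted averages across replicates, with the logarithm taken to base 2.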

Row | Variant | polymerase ribozyme fitness (log ratio)
1 | U55G A97G | 0.0201
2 | U55A C69U G136A | -3.04
3 | C54U C76U C85G | -1.18
4 | C54U C93G | -3.72
5 | C54U C93U | -1.99
6 | U55A C85A A119U U134A A142C | ≤ -4.2
7 | U55A G86A C93A U104C A113U G126A | ≤ -4.2
8 | U55A A115U | -1.89
9 | U55A G92U | -1.03
10 | U55G C57G U101G | 0.189
11 | C54U G58C C85A | -2.42
12 | C54U G141A U151G | ≤ -4.2
13 | U55A A122G | -0.237
14 | U55A C96A G136C | -3.78
15 | U55A G84A G86A C93U C105U | -1.1
16 | C54U C105A C131G | ≤ -4.2
17 | U55A U56A G80U U111A | ≤ -4.2
18 | U55A C93U A115U G143U | ≤ -4.2
19 | C54U U56A G86A U102A C116A | -2.55
20 | U55G A60G | 0.467
21 | U55C C63U C85G A107U A142U U145A | ≤ -4.2

Row | Variant | polymerase ribozyme fitness (log ratio)
22 | C54U C114A A137U | -3.59
23 | U55A A73U C93A A122U | -3.55
24 | U55C C85U A97U | -1.16
25 | C54U C75G G80C U82A C87U C99G | ≤ -4.2
26 | U55A C76A C114U | -3.91
27 | C54U G67U G86U C95A | ≤ -4.2
28 | U55A U134G | -1.99
29 | U55A U134C | -0.296
30 | U55A U61A | -3.16
31 | U55G A73C C87A | ≤ -4.2
32 | U55A C72U C79A A107G | ≤ -4.2
33 | C54U U82A C105U A119G | 0.194
34 | U55A A60G C76G C87G C96U U139A G140C | ≤ -4.2
35 | C54U U55A C95G C96A | -3.07
36 | U55G A73U A122G G126C | -1.69
37 | U55A C93U | -1.68
38 | U55A G140A | -4
39 | U55A G140U | -2.9
40 | U55A G80A C85A | -1.39
41 | U55A C57A | 0.142
42 | U55A C57U | 0.643

Row | Variant | polymerase ribozyme fitness (log ratio)
43 | U55C G58U G124A | -0.624
44 | C54U C87G A142C | ≤ -4.2
45 | C54U G68C C69G G71U G140A U144G | ≤ -4.2
46 | C54U G84C C93U U144C | ≤ -4.2
47 | C54U G70A G83A U90A G143U | ≤ -4.2
48 | C54U U55A C76A A91U C95A C103A C131G A138U | ≤ -4.2
49 | U55A G86A C149U A150U | -1.65
50 | C54U C93G U145A | ≤ -4.2
51 | C54U U56C C93U A150U | 0.278
52 | C54U U55C C72U C87A | ≤ -4.2
53 | U55A C108G | ≤ -4.2
54 | C54U U56A G71A A107C A150C | ≤ -4.2
55 | C54U C99G U101G A142U | -3.57
56 | U55A A66G G92U A119C | ≤ -4.2
57 | U55C C85G | -1.66
58 | U55C C85A | -1.24
59 | U55A U78G G84U C87G C118U | ≤ -4.2
60 | C54U C87U C99U U135C | -3.26
61 | U55A C69A A97U U102C C149A | ≤ -4.2
62 | U55A C69A U77C A89G | ≤ -4.2
63 | U55A C114U | -2.21

Row | Variant | polymerase ribozyme fitness (log ratio)
64 | U55A C114A | -3.44
65 | C54U U130G | -3.73
66 | C54U U82G C95A A119G | -2.04
67 | U55A C69U C93U | -3.95
68 | U55A G68A | -3.21
69 | U55A U78G G94U C114G | ≤ -4.2
70 | U55A U78A C85U C93U | ≤ -4.2
71 | C54U G84A A110U | ≤ -4.2
72 | U55A G84U G152C | -3.48
73 | U55A C63A | -0.431
74 | U55A G71C A106U C125A | ≤ -4.2
75 | U55G A107U A122U | -3.21
76 | C54U C85G C87G | ≤ -4.2
77 | U55A C85A G133C | -3.05
78 | C54U C95G A98G | -2.01
79 | C54U G94C | -1.15
80 | C54U G94A | -0.351
81 | U55A C57U C87G C125A | ≤ -4.2
82 | U55C C85U G136C | -3.51
83 | U55A U56G C75G | -4.19
84 | U55A U77A | ≤ -4.2
